Results on 19 sequences are retold here after the DeepSol protein solubility set.

The series can be described thus: soluble on expression in E. coli; label from the status in PepcDB or PDB records.
As for “MKPLSSPLQQYWQTIVERLPEPLAEESLSAQAKSVLTFSDFVQDSISAHPEWLTELESQPPQADEWQHYVAWLQEALINVSDEAGLMRELRLFRRRIMVRIAWAQTLALVTEESILQQLSYLAETLIVAARDWLYDACCREWGTPCNAQGEAQPLLILGMGKLGGGELNFSSDIDLIFAWPEHGCTQGGRWELDNAQFFTRMGQRLIKVLDQPTQDGFVYRVDMRLRPFGESGPLVLSFAALEDYYQEQGRDWERYAMVKARIMGDSEGVYANELRAMLRPFVFRRYIDFSVIQSLRNMKGMIAREVRRRGLTDNIKLGAGGIREIEFIVQVFQLIRGGREPSLQSRSLLPTLSVIAALHLLSENDAEQLRVAYLFLRRLENLLQSINDEQTQTLPSDELNRARLAWAMDFADWPQLTGALTAHMTNVRRVFNELIGDDESETQEESLSEQWRELWQDALQEDDTTPVLAHLSEDDRKQVLTLIADFRKELDKRTIGPRGRQVLDHLMPHLLSDVCAREDAAVTLLRITALLAGIVTRTTYLELLSEFPAALKHLISLCAASPMIASQLARYPLLLDELLDPNTLYQPTATDAYRDELRQYLLRVPEDDEEQQLEALRQFKQAQLLRIAAADIAGTLPVMKVSDHLTWLAEAMIDAVVQQAWVQMVARYGKPNHLNEREGRGFAVVGYGKLGGWELGYSSDLDLIFLHDCPMDAMTDGEREIDGRQFYLRLAQRIMHLFSTRTSSGILYEVDARLRPSGAAGMLVTSTEAFADYQKNEAWTWEHQALVRARVVYGDPQLTAHFDAVRREIMTLPREGKTLQTEVREMREKMRAHLGNKHRDRFDIKADEGGITDIEFITQYLVLRYAHEKPKLTRWSDNVRILELLAQNDIMEEQEAMALTRAYTTLRDELHHLALQELPGHVPEDCFTAERELVRASWQKWLVEE”, the “soluble on expression in E. coli” value was “not soluble”.

For the sequence “MKPNPPINELVLLQAHQLAERIRLRQVSCREVMQAYLAHIERFNPRVNALVSLLPAERLLEEADARDGELARGEWRGWMHGLPHAIKDLSLTRGIRTTLGSPLYRDYIPERDGIMVERIRAAGAILIGKTNTPEFGLGSQTYNPLFGATACAYDERLSAGGSSGGAAAALALHLVPVADGSDMMGSLRNPAAFNNVIGFRPSQGRVPFDDSADLFFDQLGYEGPMGRSVRDTALLLSVQAGADRRAPLSIAEPGARFAAPLERDFEGTRLGWLGDLDGYLPMQDGILQMCQRALGDFRSLGCEIEEANLGFAPERLWECWRTLRHWLVAGSLGGVHADPAKRALLKPEALWEVENGLRLGADAVFRASVIRSDWYRAIGRLFERYDYLLLPSAQVFPFAKETPWPRSIEGVAMDTYHRWMEVVVPGSLSGCPVANVQAGFNAEGLPMGLQIIGPHQADFAVLQLAHAYERASRWFERQPSPLLAN”, the “soluble on expression in E. coli” value is “not soluble”. With “MKPRNINNSLPLQPLVPDQENKNKKNEEKSVNPVKITMGSGLNYIEQESLGGKYLTHDLSIKIADISEEIIQQAILSAMSIYKFSITDDLMSMAVNELIKLTKIENNVDLNKFTTICTDVLSPRVTRHNKEKNKRHSTLLKNPLFNFH”, the “soluble on expression in E. coli” value is recorded as “not soluble”. Next, “MKPRNINNSLPLQPLVPDQENKNKKNEEKSVNPVKITMGSGLNYIEQESLGGKYLTHDLSIKIADISEEIIQQAILSAMSIYKFSITDDLMSMAVNELIKLTKIENNVDLNKFTTICTDVLSPRVTRHNKEKNKRHSTLLKNPLFNFHLEHHHHHH”: “soluble”; “MKPSHQQQKQASAAKDEKKDIIPLSAEKADGAEGWLNNSTILYTASNPTKTELFPYRIFTGKAKKLYQTDGQIVDVQINAREQMILLQITHSQKTAVVLLNAEGETLYEKDYETYELEAAWNQYDPYQMMVTEFNENWDFHTYQVNAKKDESFLSPVQVPFIHWTSKNTFDYVKEGRDDKTGPLYTFDTASKTEQKLEDNVLFFDSFHQMSFTVKSASGGKGTYQFKTPQSTSPVTAKWPLQAKYTSLAPMEYDYDEAGSLFYTFKQSGDAYKLAAINVASGETKDLVSLREMEPIQISPNGKYALYGFHFEQIILLKSHETKQLIIDQKEMELEHHHHHH”: “soluble”.

As to “MKPTAIFLMGPTASGKTDLAIQLRSQLPVEVISVDSALIYKGMDIGTAKPSKEELALAPHRLIDILDPSESYSAMNFRDDALREMADITAQGKIPLLVGGTMLYYKALIEGLSPLPSADENIRAELEQKAAQQGWAALHTELAKIDPISAARINPSDSQRINRALEVFYITGKSLTELTEEKGEALPYDFVQFAIAPQDRHVLHERIEQRFHKMIELGFQAEVEKLYARGDLNINLPSIRCVGYRQMWEYLQGDYAYEEMIFRGICATRQLAKRQLTWLRGWKTPIQWLDSLQPQQAKETVLRHLDSYQKGLEHHHHHH”, the “soluble on expression in E. coli” value is “soluble”. With “MKPTFLEFRHLKTLLALKETGSVSLAAKRVYLTQSALSHQIKLIEEQFGLPLFERKSNPLRFTSAGERLIRLANEVMPKVIDAERDLARVKHGDAGQLRIAVECHTCFDWLMPAMDEFRQHWGLVELDIVSGFHTDPVGLLLSHRADWAIVSEIEHNDDVIFKPLFSYEMVGICSKNHSLAEKDIWEAEDFIDETWVTYPVPDDMLDLWRKVLKSKGINPTRRTTELTIAMIQLVASRRGIATIPYWAALPYLEKGYVVARKVTKEGLYSNLYAAIRKEDESLSYLEDFYQTVKSQSFSTLPGLSVLNL” the entry was “not soluble”; with “MKQLAISFCIILPLACFWVLNAEDAKEAPEIREANSTVFRQKRQFGCPSNCYSSCSSSSQCQRYSVASVCVQGCCCPGNNNLDTACSGGPAVAACLGGLCGQGFFCSSNNYCCRCQSGNSTGPCVNQVCPTGFMCNTNNYCCPLGSGGVLGSCVNGVCPTGYTCGAGNLCYLSSGK”, “not soluble”. “MKQSTIALALLPLLFTPVTKADIELTQSPSSLAVSAGEKVTMSCKSSQSLLNSGNQKNYLAWYQQKPGLPPKLLIYGASTRESGVPDRFTGSGSGTDFTLTISSVQAEDLAVYYCQNDHSYPLTFGAGTKLEIKRTVAAPSVFIFPPSDEQLKSGTASVVCLLNNFYPREAKVQWKVDNALQSGNSQESVTEQDSKDSTYSLSSTLTLSKADYEKHKVYACEVTHQGLSSPVTKSFNRGEC”: the “soluble on expression in E. coli” value was “soluble”. Regarding “MKQSTIALALLPLLFTPVTKAREVQLQQSGPELVKPGASVKMSCKASGYTFTSYVMHWVKQKPGQGLEWIGYINPYNDGTKYNEKFKGKATLTSDKSSSTAYMELSSLTSEDSAVYYCARGAYKRGYAMDYWGQGTSVTVSSRGGGGSGGGGSGGGGSDLVMSQSPSSLAVSAGEKVTMSCKSSQSLFNSRTRKNYLAWYQQKPGQSPKLLIYWASTRESGVPDRFTGSGSGTDFTLTISSVQAEDLAVYYCKQSYYHMYTFGSGTKLEIKHHHHHGLVPRGSGDPKADNK”, the “soluble on expression in E. coli” value was “soluble”. Regarding “MKQTPPLISFITICYNGLDDTCMLIESLRDTISSVSYEIIVVDNASRQDEASLIQERYPFVRTLRSEKNLGFSGGNNLGIQIAQGKYLFLINNDTYLTEDGLPALIERLESDPRIGAVSPKIRFAFPPQSIQFAGYTKLSRYTMRNKALGMGCPDDGTFDTPRPSAYLHGAALMLKREVIWKAGLMPEIYFLYYEELDWCTSMTRAGYQLWYEPRCTIFHKESQSTGRQSPLRTFYMMRNRMLYAWRNLPGMERCLAIAYQMLIVAPKDSLCFVLKGEPKLAKAVWHGVKGFWKLCLEHHHHHH”, the “soluble on expression in E. coli” value is listed as “soluble”. Next, “MKQYLELMQKVLDEGTQKNDRTGTGTLSIFGHQMRFNLQDGFPLVTTKRCHLRSIIHELLWFLQGDTNIAYLHENNVTIWDEWADENGDLGPVYGKQWRAWPTPDGRHIDQITTVLNQLKNDPDSRRIIVSAWNVGELDKMACAPSHAFFQFYVADGKLSCQLYQRSCDVFLGLPFNIASYALLVHMMAQQCDLEVGDFVWTGGDTHLYSNHMDQTHLQLSREPRPLPKLIIKRKPESIFDYRFEDFEIEGYDPHPGIKAPVAI”: “soluble”. Next, “MKRISTLFLLATLGLAAGTAQAAQPDAGLTGCAAKRSAIENQLKIARDHGNSDQVGGLEEALRGVDNCTDASLRKEREQKVLDARHEVAQREKDLKKAEKKGDAEKINKRKDKLAESRKELQEAVDALDR”: “not soluble”; “MKRLIGLVIVALVLLAACGSNNDKKVTIGVASNDTKAWEKVKELAKKDDIDVEIKHFSDYNLPNKALNDGDIDMNAFQHFAFLDQYKKAHKGTKISALSTTVLAPLGIYSDKIKDVKKVKDGAKVVIPNDVSNQARALKLLEAAGLIKLKKDFGLAGTVKDITSNPKHLKITAVDAQQTARALSDVDIAVINNGVATKAGKDPKNDPIFLEKSNSDAVKPYINIVAVNDKDLDNKTYAKIVELYHSKEAQKALQEDVKDGEKPVNLSKDEIKAIETSLAK”: “soluble”; “MKRPHGYQITSLRADKYGGYYAANFVGNEILYFDVNNNVNALVKDGFSYLKSPYDVIEANNLLYVTLYSSDEIGVYDKVLGVKRKSIGNKGTKDGELLAPQYMAIDKRNYIYVSEWGNKRVSKFGLEGDFILHFGSRTSGYKGLLGPTGVTYLNENIYVADSLRNTIEVFDTSGNHLYSVFTSIEGIEGLSSDFVGNNVIVSSKDGVYKYSIAKKTITKILKADKMNSKISSSILDANNQMIVSDFNNAKVSVYKSDASLYDSLEHHHHHH”: “soluble”. Next, “MKRREVLQAGMALGGLAGLGRALAQGGFTLTLVHTNDTHAHLEPVELTLSGEKTPVGGVARRVALFDRVWARAKNPLFLDAGDVFQGTLYFNQYRGLADRYFMHRLRYRAMALGNHEFDLGPGPLADFLKGARFKVVSANVDASREPRLKGLFAPYAVVVVGGERVGIIGLTTPDTREISNPGPTVAFLDPYESAQKAVYELLAKGVNKIVVLSHLGYGEDLKLARRLVGVQVIVGGHSHTLLGSFPHKELSPAGPYPTVVKNPEGKDVLVVQAWEWGKVVGLLEVTFDAKGELLAYKGEALLMTPEAAPEDFFAKEALLAYAQPVMALMQQVIAEAKVDLVGERAVVRRRESNLGNLITDGMLWKTRNAGTQIALQNGGGIRASIPKGPITVGKVYEVLPFGNTLVVMDLKGKEILAALENGVSQWENTAGRFLQVSGLRYAFDLSRPAGSRVVRVEVKTEKGYVPLDLEATYRVVVNNFIANGGDGFTVLKEAQGYRVDTGFSDAESFMDYLKELKVVEAGLEGRIEVLNEPKGERPAYFAYRVPGLVGV”: “soluble”; “MKRVFCPKCDGAITISRETLSQASPNGSLSLLCPHCCHQLRIRLVSKSDNSHNHKTEQEEQELAQELDRSRGYIVVLENIFGYRQEFALREGDNGIGRRNKDSVVDIAVLTGDPSMGRHHCILRVTPKKDGSFLYSIADDDSLVGTFVGGRLLDKKEWCRLNDGDVITMGATSAILYTSDHKDTESEEKN”: “not soluble”; “MKRVLSGIQPSGEIHIGNYLGAIKQWVAIGEKWGRDAFFCIVDYHALTNPLAYDPSTLAQRTFEAALVNIAAGLDPEKVTLFVQSHVPEHTELSWVFTTLTPLGDLTRMTQFKDKASKQETVWSGLLMYPVLQAADILIYKADTVPVGEDQVQHIELTREIARRFNHLFGETFPEPQALLNPEAPRVPGIDGKAKMSKSLGNTIGLLEPEESIWQKIQHLPDDPQRIRLSDPGDPERTILFTYLSYFAPKDLVEALKEEYRKAGVGTYVVKRILFDHLMEALRPIRERAEALKKDPDYVMDALLEGAKRARAVAQATMEEVREKVGLLLPRKRPVLR”: “soluble”. As to “MKRVLVAMSGGVDSSVAALLLKEAGYEVVGAMMRFWPDLPPPSLEAGKPRAWESCCTPDAAYEARRVADRLGIPFYLLDYREVFEEEIISPFLQDYAQGRTPNPCARCNTFVKFGALLKQARRLGLDYVATGHYVRKEGLALLRGLDPHKDQTYFLWGTPKEALPHLLFPVGGLTKPEVRALAEKAGLPTARRPESQNLCFVAGDLKGFLKERLKPRPGPLVDALTGEVVGEHEGASLYTLGQRKGLGLYKTHLERYVVGVDPERNVVYVGPKEACYFEGLEGEGLNLLAELPEEVEVQVRYRTPPVRAKVESLSPLRLRFAHPVFAVTPGQSAVFYRGERLLGGAVIRRGLYNLAGLEDPRALTFS”, the “soluble on expression in E. coli” value was “soluble”.
